Measured values reported in article PMC9514091, “Discovery of the first PD-1 ligand encoded by a pathogen” (Frontiers in Immunology, 2022).

Target: T1, host PD-1-Fc fusion protein ( ('host'; the dolphin PD-1 of …)
T1 chain: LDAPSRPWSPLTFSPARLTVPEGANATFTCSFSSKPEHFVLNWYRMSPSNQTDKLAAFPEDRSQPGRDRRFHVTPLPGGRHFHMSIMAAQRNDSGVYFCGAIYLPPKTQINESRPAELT
Assay: SPR; Biacore T200, 25°C; PD-1-Fc amine-coupled to a CM4 chip (acetate buffer pH 6.5); De2-Fc or PD-L1-Fc as analytes at 0-400 nM in PBS with 0.05% Tween, 30 µL/min; 1:1 Langmuir model
Conditions: both partners purified

B1: host PD-L1-Fc fusion protein (Fc fusion)
chain: FTITVPKDLYVVEYGSNVTLECRFPVDKQLNLLALVVYWEMEDKKIIQFVNGEEDLNVQHSSYNQRALLLKNQLPLGKAALQITDVKLQDAGIYCCLISYGGADYKRITLKVNASYRKINQTISVDPVTSEHELMCQAEGYPEAEVIWTSSDHRVLSGKTTITSSKREEKLFNVTSTLRINTTANEIFYCIFRRLGHEENSTAELV
B1 gave a Kd of 6.2 nM.
